In this assay the target is Ghrelin/GHRP/GHS Receptor (Rattus norvegicus, UniProt O08725). The assay can be described thus: In vitro GH release from cell culture of pituitary cells. Format: cell-based. The arrangement: After dispersion, the cells were collected by centrifugation, wash with DMEM and placed into culture well; endogenous in cells; host or cells: dispersed primary rat anterior pituitary cells. The note with it: Table 8. Here is the method: In vitro GH Release-Female rats of the CD-1 strain were housed in a constant temperature room at 24° C. with 14 h light and 10 h darkness. The rats were fed Purina Rat chow and water at libitum. All studies were started between 0800-1000 hours. Pituitaries of mature female Sprague Dawley rats were rapidly removed after decapitation, neurointermediate lobe discarded and then placed in a pH 7.4 buffer. The pituitaries were cut into ˜3-mm pieces and then transferred to a flask containing HEPS buffer with trypsin and incubated at 37° C. Cells were triturated several times during this period. After dispersion, the cells were collected by centrifugation, wash with DMEM and placed into culture well. Cell cultures were maintained for 4 days at 37° with 8% CO2 added to the incubator atmosphere. After 4 days in culture, cells were washed with lactated Ringer's solution adjusted to pH 7.2-7.4 and then vehicle, peptide alone or peptide plus stimulator was added to media. Incubation time was 60-120 minutes after which media was removed from each well for GH determination. The GH RIA reagents were distributed by the NIH. Control data was collected from cell cultures treated with only the corresponding vehicle in the absence of peptide or stimulator. Control stimulated data was collected from cell cultures treated with stimulator alone in the absence of any peptide.

Where [1] appears, read: peptide antagonist dosage 1 (head prints μg/i.v.).
The mark [2] stands for this setting: peptide antagonist dosage 3 (head prints μg/i.v.).
[3] abbreviates: peptide antagonist dosage 10 (head prints μg/i.v.).
Where [4] appears, read: peptide antagonist dosage 30 (head prints μg/i.v.).

Where no end group is shown, it is not given here. [ ]: non-standard residue; d: D form. The star is where a group is joined. d2Nal = N[C@H](Cc1ccc2ccccc2c1)C(=O)O; Cha = N[C@@H](CC1CCCCC1)C(=O)O; dCha = N[C@H](CC1CCCCC1)C(=O)O; Picolinoyl = O=C(c1ccccn1)*; Nle = CCCC[C@H](N)C(=O)O; dPal = not defined here; Aib = CC(C)(N)C(=O)O; iPr = CC(C)*

Ghrelin/GHRP/GHS Receptor, sequence (O08725 whole entry): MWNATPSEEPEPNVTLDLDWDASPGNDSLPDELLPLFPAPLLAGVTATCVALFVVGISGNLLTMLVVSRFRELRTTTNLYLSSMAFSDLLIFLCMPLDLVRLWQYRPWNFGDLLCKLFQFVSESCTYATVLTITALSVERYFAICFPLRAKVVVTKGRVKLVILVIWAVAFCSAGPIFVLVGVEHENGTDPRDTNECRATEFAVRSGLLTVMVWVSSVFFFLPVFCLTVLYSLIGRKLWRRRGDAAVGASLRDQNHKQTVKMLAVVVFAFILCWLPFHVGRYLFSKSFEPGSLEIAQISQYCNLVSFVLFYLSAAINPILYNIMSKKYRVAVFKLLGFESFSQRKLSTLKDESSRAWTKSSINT

For “αAib-DTrp-DAla-cyclohexylAla-NH2 ([Aib][dW][dA][Cha]-NH2; N-terminus assumed; SMILES C[C@@H](NC(=O)[C@@H](Cc1c[nH]c2ccccc12)NC(=O)C(C)(C)N)C(=O)N[C@@H](CC1CCCCC1)C(N)=O)”, the “Unstimulated Basal GH release from cell cultures of pituitary cells” value (“Unstimulated Basal GH release” for short) reads like this: under setting [1], 1086 ± 52 ng/mL; under setting [2], 1103 ± 18 ng/mL; under setting [3], 994 ± 22 ng/mL; under setting [4], 704 ± 115 ng/mL.
For the substance Ac-DβNal-DTrp-NH2, the “Unstimulated Basal GH release” value was determined as 1264 ± 2 ng/mL under setting [2], 980 ± 72 ng/mL under setting [3] and 699 ± 7 ng/mL under setting [4].
The corresponding values for “His-DTrp-DTrp-Lys-NH2 (H[dW][dW]K-NH2; N-terminus assumed; SMILES NCCCC[C@H](NC(=O)[C@@H](Cc1c[nH]c2ccccc12)NC(=O)[C@@H](Cc1c[nH]c2ccccc12)NC(=O)[C@@H](N)Cc1c[nH]cn1)C(N)=O)” are 1124 ± 37 ng/mL, 749 ± 10 ng/mL and 615 ± 41 ng/mL.
The corresponding values for “DPal-Phe-DTrp-Phe-Met-NH2 ([dPal]F[dW]FM-NH2; reading uncertain; also: printed as DPal-Phe-DTrp-Phe-Met-NH2)” are 1081 ± 50 ng/mL, 997 ± 30 ng/mL and 425 ± 25 ng/mL.
“DPhe-Ala-Phe-DPhe-Lys-NH2 ([dF]AF[dF]K-NH2; N-terminus assumed; SMILES C[C@H](NC(=O)[C@H](N)Cc1ccccc1)C(=O)N[C@@H](Cc1ccccc1)C(=O)N[C@H](Cc1ccccc1)C(=O)N[C@@H](CCCCN)C(N)=O)”: the “Unstimulated Basal GH release” value under setting [3] worked out at 267 ± 27 ng/mL, the “Unstimulated Basal GH release” value under setting [4] came out at 276 ± 65 ng/mL and the “Unstimulated Basal GH release” value (peptide antagonist dosage 100 (head prints μg/i.v.)) is 360 ± 84 ng/mL.
For the substance “αAib-DTrp-DcyclohexylAla-NH2 ([Aib]-[dW]-[dCha]-NH2; N-terminus assumed; SMILES CC(C)(N)C(=O)N[C@H](Cc1c[nH]c2ccccc12)C(=O)N[C@H](CC1CCCCC1)C(N)=O)”, the “Unstimulated Basal GH release” value runs as follows: under setting [1], 980 ± 44 ng/mL; under setting [2], 826 ± 32 ng/mL; under setting [3], 602 ± 53 ng/mL; under setting [4], 492 ± 11 ng/mL.
For “DAla-DcyclohexylAla-Ala-Ala-Phe-DPhe-Nle-NH2 ([dA][dCha]AAF[dF][Nle]-NH2; N-terminus assumed; SMILES CCCC[C@H](NC(=O)[C@@H](Cc1ccccc1)NC(=O)[C@H](Cc1ccccc1)NC(=O)[C@H](C)NC(=O)[C@H](C)NC(=O)[C@@H](CC1CCCCC1)NC(=O)[C@@H](C)N)C(N)=O)”, in that order: 286 ± 75 ng/mL, 177 ± 44 ng/mL, 271 ± 38 ng/mL and 376 ± 28 ng/mL.
As to “Ac-DβNal-PicLys-ILys-DPhe-NH2 (Ac-[d2Nal]K(Picolinoyl)K(iPr)[dF]-NH2; SMILES CC(=O)N[C@H](Cc1ccc2ccccc2c1)C(=O)N[C@@H](CCCCNC(=O)c1ccccn1)C(=O)N[C@@H](CCCCNC(C)C)C(=O)N[C@H](Cc1ccccc1)C(N)=O) [Ac-DβNal-PlcLys-ILys-DPhe-NH2]”, the “Unstimulated Basal GH release” value reads like this: under setting [2], 1013 ± 207 ng/mL; under setting [3], 976 ± 13 ng/mL; under setting [4], 928 ± 16 ng/mL.

The values are drawn from patent publication US9724381B2 (THE ADMINISTRATORS OF THE TULANE EDUCATIONAL FUND, priority 2009, dated 2017).
